The target in assay [1] is T1, human complement protein C6 (human, UniProt P13671 22-934).
T1 construct: also called human C6; C6 antigen
Put plainly: SPR (Biacore 8K), IgG on protein G chip, C6 0.03-25 nM 3-fold series, 1:1 fit. How it is done: (§1) The kinetics of C6 binding was compared for the purified chimeric and lead humanized C601 using surface plasmon resonance (SPR, Biacore 8K). IgG were captured on a protein G sensor chip and binding of C6 measured using a three-fold concentration series of C6 from 0.03 nM-25 nM (FIG. 5). In a second experiment, a two-fold concentration series from 0.31 nM-20 nM C6 was used (FIG. 6). For all antibodies, binding of C6 occurred in a concentration-dependent manner and data could be fitted using a 1:1 model to calculate the association rate (kₒₙ), dissociation rates (kd) and affinity constant (KD). The kinetic data are shown in Table 5, which indicates only small differences between the parameters determined from the two independent experiments.
(§2) Binding ELISAs used Nunc Maxisorp 384-well plates, wells coated with C6, C5b,6 complex or C5 (Complement Technology Inc, TX) and goat anti-human IgG (Fab specific) peroxidase secondary antibodies (Sigma-Aldrich, A0293) for detection. For the thermal stability assay, IgG supernatants were diluted to their EC₈₀ concentration, incubated at different temperatures for 10 min and C6 binding measured by ELISA with the binding signal plotted against temperature. Kinetics of C6 binding were measured by capturing antibodies from supernatant samples using Protein G biosensors and performing a 20 min association step with 2.5 nM C6 and a 20 min dissociation step using the Octet RED96. Precise kinetic measurements were obtained by surface plasmon resonance (Biacore 8K, Cytiva). The IgG were captured on a protein G sensor chip. Binding of C6 measured using a three-fold concentration series of C6 from 0.03 nM-25 nM and data were fitted using a 1:1 model in two independent experiments.
In general terms: In SPR one partner is held on a chip, and binding of the other changes the refractive index at the surface.

Assay [2] deals with T1, human complement protein C6. Briefly: SPR (Biacore 8K). How it is done: as §1, §2
Assay [3] has the same target. Put plainly: ELISA, C6-coated wells, large-scale purified antibody.
Assay [4] shares this target. Briefly: SPR (Biacore 8K), IgG on protein G chip, C6 0.31-20 nM 2-fold series, 1:1 fit. How it is done: as §1
The target is the same in assay [5]. Put plainly: C6-binding ELISA, A650 nm; sample 'human serun' (human serum, 28 days at 37 C). How it is done:
(§3) For the serum stability assessment, samples of the purified candidate antibodies are normally incubated in mouse, human and cynomolgus serum at 37 C for 28 days and then tested in an antigen-binding ELISA. Since the anti-C6 antibodies are expected to bind to both human and cynomolgus C6 but not mouse C6, we anticipated that incubating in human or cynomolgus sera would reduce ELISA binding due to occupation of the antibody binding sites by C6 protein from the sera. Therefore, the chimeric and humanized antibodies were tested with human and mouse sera and with human sera from which the C6 protein has been depleted. […]
as §2, with “Precise kinetic measurements were obtained by surface plasmon resonance (Biacore 8K, Cytiva). The IgG were captured on a protein G sensor chip. Binding of C6 measured using a three-fold concentration series of C6 from 0.03 nM-25 nM and data were fitted using a 1:1 model in two independent experiments.” left out

Assay [6] shares this target. Put plainly: C6-binding ELISA, A650 nm; sample 'PBS, non-incubated' (kept at 4 C). How it is done: (§4) The C6-binding ELISA was then used to compare the binding abilities of the C601 antibodies that had been incubated in the 3 different sera to antibody samples that were incubated in PBS at 37 C or kept at 4 C (non-incubated).
as §2, with “Precise kinetic measurements were obtained by surface plasmon resonance (Biacore 8K, Cytiva). The IgG were captured on a protein G sensor chip.” left out
(§5) The Uncle instrument (Unchained Labs) was used to monitor unfolding via intrinsic fluorescence and aggregation by static light scattering across a temperature gradient to obtain melting temperatures (Tₘ). […] Isoelectric points were determined by capillary isoelectric focusing using a PA800+ (Beckman Coulter).
Background: In an ELISA, binding on a coated surface is turned into a signal by an enzyme label.

In assay [7] the target is human complement protein C5 (human, UniProt P01031 19-673; P01031 678-1676). Briefly: ELISA, C5-coated wells. How it is done: The 20 purified antibodies were tested by ELISA for their abilities to bind human complement proteins C5, C5b6 and C6. The antibodies were divided into two sets for this analysis. MoC601 HuG4K and HuG4K isotype controls were included alongside each set, as was C601HFKC4 HuG4K (aka 3713) expression supernatant from the original transfection as an additional positive control. In addition, three humanized antibodies (C601HFKC4 HuG4K, C601HPKI HuG4K and C601HPKC4 HuG4K) were included within both sets to allow better comparison between the plates. The antibodies all show specificity for C6 with no detectable binding to C5. All humanized antibodies bind to C6 and to C6 as part of the C5b6 complex. The lower plateaus of the C5b6 complex binding curves are explained by less C6 protein being available for binding when wells are coated with C5b6 complex as opposed to C6 alone. […] The EC₅₀ values are included in the figure but slightly different plateau levels observed for the antibodies are influencing the apparent EC₅₀ values. However, it was noted that the EC₅₀ values tended to be lower on the plates for the second set of antibodies. For this reason, a subset of the 20 antibodies was tested in a further ELISA for binding to C6 and C5b6 complex.
as §2

The target in assay [8] is T1, human complement protein C6. Briefly: C6-binding ELISA, A650 nm; sample 'mouse serum' (28 days at 37 C). How it is done:
as §3
as §2, with “Precise kinetic measurements were obtained by surface plasmon resonance (Biacore 8K, Cytiva). The IgG were captured on a protein G sensor chip. Binding of C6 measured using a three-fold concentration series of C6 from 0.03 nM-25 nM and data were fitted using a 1:1 model in two independent experiments.” left out

The target is the same in assay [9]. Briefly: C6-binding ELISA, A650 nm; sample 'PBS' (28 days at 37 C). How it is done:
(§6) For the serum stability assessment, samples of the purified candidate antibodies are normally incubated in mouse, human and cynomolgus serum at 37 C for 28 days and then tested in an antigen-binding ELISA. Since the anti-C6 antibodies are expected to bind to both human and cynomolgus C6 but not mouse C6, we anticipated that incubating in human or cynomolgus sera would reduce ELISA binding due to occupation of the antibody binding sites by C6 protein from the sera. Therefore, the chimeric and humanized antibodies were tested with human and mouse sera and with human sera from which the C6 protein has been depleted. The C6-binding ELISA was then used to compare the binding abilities of the C601 antibodies that had been incubated in the 3 different sera to antibody samples that were incubated in PBS at 37 C or kept at 4 C (non-incubated).
(§7) The Uncle instrument (Unchained Labs) was used to monitor unfolding via intrinsic fluorescence and aggregation by static light scattering across a temperature gradient to obtain melting temperatures (Tₘ). […] Isoelectric points were determined by capillary isoelectric focusing using a PA800+ (Beckman Coulter). […]

Assay [10] shares this target. Put plainly: C6-binding ELISA, A650 nm; sample 'C6-depleted human serum' (28 days at 37 C). How it is done:
as §3
as §2, with “Precise kinetic measurements were obtained by surface plasmon resonance (Biacore 8K, Cytiva). The IgG were captured on a protein G sensor chip. Binding of C6 measured using a three-fold concentration series of C6 from 0.03 nM-25 nM and data were fitted using a 1:1 model in two independent experiments.” left out

For assay [11] the target is unchanged. Briefly: C6-binding ELISA, A650 nm; sample 'mouse serum' (28 days at 37 C) [cont.) D]. How it is done:
as §6, §7

The target is the same in assay [12]. Put plainly: C6-binding ELISA, A650 nm; sample 'C6-depleted human serum' (28 days at 37 C) [cont.) D]. How it is done:
as §6, §7

Assay [13] shares this target. Put plainly: C6-binding ELISA, A650 nm; sample 'human serun' (human serum, 28 days at 37 C) [cont.) D]. How it is done: as §6, §7
The target is the same in assay [14]. Put plainly: C6-binding ELISA, A650 nm; sample 'PBS, non-incubated' (kept at 4 C) [cont.) D]. How it is done:
as §4
as §2, with “Precise kinetic measurements were obtained by surface plasmon resonance (Biacore 8K, Cytiva). The IgG were captured on a protein G sensor chip.” left out
as §5

Assay [15] shares this target. Briefly: C6-binding ELISA, A650 nm; sample 'PBS' (28 days at 37 C) [cont.) D]. How it is done: as §3
as §2, with “Precise kinetic measurements were obtained by surface plasmon resonance (Biacore 8K, Cytiva). The IgG were captured on a protein G sensor chip. Binding of C6 measured using a three-fold concentration series of C6 from 0.03 nM-25 nM and data were fitted using a 1:1 model in two independent experiments.” left out

Assay [16] shares this target. Briefly: ELISA, purified protein, anti-human IgG (Fab-specific) detection. How it is done: The binding of the purified chimeric molecules, MoC601 HuG4K and MoC601 HuG1KFab, was also confirmed by ELISA, where the anti-human IgG (Fab-specific) secondary reagent was used. The control mouse antibody bound as previously (EC₅₀ 0.11 nM). The EC₅₀ for purified MoC601 HuG4K (0.27 nM) was similar to that obtained for the MoC601 HuG4K supernatant sample above. […] The EC₅₀ value for the Fab molecule (0.48 nM) was higher than for the antibody, which would be expected since the Fab is unable to bind bivalently to the antigen on the well. A C6-binding assay was also set up on the Octet RED384 instrument. […] However, MoC601 MoG1K could be stably loaded onto anti-mouse Fc (AMC) biosensors. Concentrations of the mouse and chimeric antibodies were adjusted to give similar levels of loading on to the AMC and […]

Results on three molecules are retold here after US20260125455A1 (CLEVELAND CLINIC FOUNDATION, published 2026).

T1 sequence (P13671 22-934 limits assumed): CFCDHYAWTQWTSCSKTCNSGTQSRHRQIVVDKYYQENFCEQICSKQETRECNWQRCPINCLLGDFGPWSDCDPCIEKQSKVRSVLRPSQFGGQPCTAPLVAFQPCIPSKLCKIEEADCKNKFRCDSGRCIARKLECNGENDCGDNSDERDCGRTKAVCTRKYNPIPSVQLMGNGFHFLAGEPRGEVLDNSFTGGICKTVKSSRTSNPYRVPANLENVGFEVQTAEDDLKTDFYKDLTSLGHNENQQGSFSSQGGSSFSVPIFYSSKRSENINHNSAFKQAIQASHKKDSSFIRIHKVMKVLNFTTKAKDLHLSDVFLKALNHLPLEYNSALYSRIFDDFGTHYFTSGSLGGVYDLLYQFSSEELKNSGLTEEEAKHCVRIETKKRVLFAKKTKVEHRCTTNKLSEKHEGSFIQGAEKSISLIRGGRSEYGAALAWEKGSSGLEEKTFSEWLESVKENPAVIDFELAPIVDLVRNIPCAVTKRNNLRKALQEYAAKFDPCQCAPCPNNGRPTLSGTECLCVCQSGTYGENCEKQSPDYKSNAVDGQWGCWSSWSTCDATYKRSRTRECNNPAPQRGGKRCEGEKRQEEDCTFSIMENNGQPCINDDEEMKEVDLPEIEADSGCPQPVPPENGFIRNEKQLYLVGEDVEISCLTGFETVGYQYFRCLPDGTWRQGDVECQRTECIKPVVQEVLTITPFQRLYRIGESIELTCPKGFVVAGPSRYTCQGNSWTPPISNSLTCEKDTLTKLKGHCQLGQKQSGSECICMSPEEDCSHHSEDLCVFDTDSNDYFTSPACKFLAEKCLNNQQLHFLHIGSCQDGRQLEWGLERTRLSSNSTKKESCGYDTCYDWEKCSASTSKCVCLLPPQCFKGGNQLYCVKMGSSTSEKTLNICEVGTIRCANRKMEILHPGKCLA
human complement protein C5, sequence (P01031 19-673 limits assumed, chain 1 of 2): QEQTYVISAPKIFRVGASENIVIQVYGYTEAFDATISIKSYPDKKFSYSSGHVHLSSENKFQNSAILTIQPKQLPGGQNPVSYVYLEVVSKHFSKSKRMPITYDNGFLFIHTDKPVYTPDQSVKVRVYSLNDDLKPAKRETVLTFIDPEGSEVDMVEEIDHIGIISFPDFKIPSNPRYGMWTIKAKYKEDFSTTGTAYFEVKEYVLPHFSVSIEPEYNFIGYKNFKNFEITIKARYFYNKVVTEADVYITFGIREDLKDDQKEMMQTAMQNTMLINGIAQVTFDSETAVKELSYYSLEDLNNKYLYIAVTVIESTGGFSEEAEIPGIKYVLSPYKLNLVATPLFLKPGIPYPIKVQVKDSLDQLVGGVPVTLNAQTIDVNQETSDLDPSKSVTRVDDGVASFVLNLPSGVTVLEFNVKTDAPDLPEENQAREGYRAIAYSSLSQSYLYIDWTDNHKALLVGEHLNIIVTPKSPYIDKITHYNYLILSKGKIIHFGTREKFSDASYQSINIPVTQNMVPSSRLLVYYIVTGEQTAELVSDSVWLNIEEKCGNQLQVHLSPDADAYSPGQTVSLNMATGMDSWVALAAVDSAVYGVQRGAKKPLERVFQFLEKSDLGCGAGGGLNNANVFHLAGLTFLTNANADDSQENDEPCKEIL
human complement protein C5, sequence (P01031 678-1676 limits assumed, chain 2 of 2): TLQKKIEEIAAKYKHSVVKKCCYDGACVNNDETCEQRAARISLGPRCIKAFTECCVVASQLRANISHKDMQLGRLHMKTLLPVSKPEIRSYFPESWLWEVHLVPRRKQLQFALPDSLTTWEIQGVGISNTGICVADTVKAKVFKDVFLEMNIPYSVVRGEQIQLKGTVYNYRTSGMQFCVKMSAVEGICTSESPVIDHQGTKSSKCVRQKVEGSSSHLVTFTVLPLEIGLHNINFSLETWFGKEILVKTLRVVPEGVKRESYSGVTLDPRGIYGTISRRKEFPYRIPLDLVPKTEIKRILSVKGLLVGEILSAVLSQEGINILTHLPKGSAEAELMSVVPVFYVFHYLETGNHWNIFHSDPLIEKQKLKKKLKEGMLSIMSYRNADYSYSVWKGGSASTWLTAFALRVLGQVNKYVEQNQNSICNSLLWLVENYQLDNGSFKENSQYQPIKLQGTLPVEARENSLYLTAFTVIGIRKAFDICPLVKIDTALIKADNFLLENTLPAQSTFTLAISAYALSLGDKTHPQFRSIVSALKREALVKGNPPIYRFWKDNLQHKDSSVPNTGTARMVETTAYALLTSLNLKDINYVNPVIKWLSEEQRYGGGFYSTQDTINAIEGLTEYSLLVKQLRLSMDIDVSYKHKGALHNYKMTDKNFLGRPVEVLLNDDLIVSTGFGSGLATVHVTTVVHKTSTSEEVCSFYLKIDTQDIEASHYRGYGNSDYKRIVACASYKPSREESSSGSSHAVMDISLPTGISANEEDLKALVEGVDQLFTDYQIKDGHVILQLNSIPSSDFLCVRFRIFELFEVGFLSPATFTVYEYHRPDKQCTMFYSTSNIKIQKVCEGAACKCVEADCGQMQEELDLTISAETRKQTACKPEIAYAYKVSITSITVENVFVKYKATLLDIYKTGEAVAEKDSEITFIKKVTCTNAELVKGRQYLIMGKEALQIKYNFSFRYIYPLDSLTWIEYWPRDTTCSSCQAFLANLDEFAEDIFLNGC

B1: C601HFKI HuG4K (antibody, human IgG4 S228P, kappa)
heavy: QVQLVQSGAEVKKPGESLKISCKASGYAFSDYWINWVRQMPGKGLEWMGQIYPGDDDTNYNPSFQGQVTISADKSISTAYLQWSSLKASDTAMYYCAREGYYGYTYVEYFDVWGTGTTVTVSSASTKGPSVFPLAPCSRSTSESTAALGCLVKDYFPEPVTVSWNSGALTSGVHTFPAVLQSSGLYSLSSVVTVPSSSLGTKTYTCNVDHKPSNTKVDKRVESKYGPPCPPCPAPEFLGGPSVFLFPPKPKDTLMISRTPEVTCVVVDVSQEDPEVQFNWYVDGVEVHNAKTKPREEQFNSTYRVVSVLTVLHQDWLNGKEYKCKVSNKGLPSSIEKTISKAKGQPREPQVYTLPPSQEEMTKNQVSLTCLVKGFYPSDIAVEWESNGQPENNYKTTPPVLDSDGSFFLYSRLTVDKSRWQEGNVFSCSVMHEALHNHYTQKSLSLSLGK
light: EIVLTQSPATLSLSPGERATLSCRASSSVSYLHWYQQKPGQSPRLWIYDTSKRATGIPARFSGSGSGTDYTLTISSLEPEDFAVYYCQQWTSNPLTFGQGTKLEIKRTVAAPSVFIFPPSDEQLKSGTASVVCLLNNFYPREAKVQWKVDNALQSGNSQESVTEQDSKDSTYSLSSTLTLSKADYEKHKVYACEVTHQGLSSPVTKSFNRGEC
The term Kd denotes the constant that tells how readily two partners part at equilibrium. A low value points to higher affinity. In general, koff refers to a measure of how fast the partners let go of each other. A higher koff goes with fast dissociation. The kon is the second-order rate constant of association. Higher therefore signals fast association. A word on the EC50: it is the concentration that produces a half-maximal response. A high value points to lower potency in that assay. For B1, the values for the Kd in [1], in assay [2] and in assay [4] were 0.348 nM, 0.348 nM and 0.279 nM, respectively. Also, the koff in assay [1] is 0.000308 s⁻¹; in assay [4], 0.000317 s⁻¹. Besides, the kon in [1] is 890000 M⁻¹ s⁻¹; in [4], 1.14e+06 M⁻¹ s⁻¹. In addition, the EC50 is 0.22 nM in assay [3]; 0.2 nM in [5]; 0.2 nM in [6]; 0.18 nM in assay [8]; 0.22 nM in [9]; 0.19 nM in [10]. In [7], the binding result was “no binding”.

B2: C601HPKI HuG4K (antibody, human IgG4 S228P, kappa)
heavy: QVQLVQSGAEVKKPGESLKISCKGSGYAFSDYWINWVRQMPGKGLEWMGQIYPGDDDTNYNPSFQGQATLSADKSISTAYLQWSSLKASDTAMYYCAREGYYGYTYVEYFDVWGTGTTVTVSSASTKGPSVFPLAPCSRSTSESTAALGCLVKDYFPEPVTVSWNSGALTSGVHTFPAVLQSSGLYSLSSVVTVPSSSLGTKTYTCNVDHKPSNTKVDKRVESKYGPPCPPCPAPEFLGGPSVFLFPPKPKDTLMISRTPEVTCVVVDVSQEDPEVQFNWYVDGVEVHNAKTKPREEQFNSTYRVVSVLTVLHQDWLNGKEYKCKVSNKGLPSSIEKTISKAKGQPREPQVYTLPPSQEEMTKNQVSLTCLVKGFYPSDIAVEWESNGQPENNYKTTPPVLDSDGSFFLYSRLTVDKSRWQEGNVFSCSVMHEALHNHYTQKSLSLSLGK
light: EIVLTQSPATLSLSPGERATLSCRASSSVSYLHWYQQKPGQSPRLWIYDTSKRATGIPARFSGSGSGTDYTLTISSLEPEDFAVYYCQQWTSNPLTFGQGTKLEIKRTVAAPSVFIFPPSDEQLKSGTASVVCLLNNFYPREAKVQWKVDNALQSGNSQESVTEQDSKDSTYSLSSTLTLSKADYEKHKVYACEVTHQGLSSPVTKSFNRGEC
B2: the Kd in assay [1] was 0.433 nM; in [2], 0.433 nM; in [4] it was 0.295 nM. Besides, the koff in assay [1] amounted to 0.000445 s⁻¹; in assay [4] it was 0.000361 s⁻¹. In addition, the on-rate constant (kon) in assay [1] worked out at 1.03e+06 M⁻¹ s⁻¹; in assay [4] it was 1.23e+06 M⁻¹ s⁻¹. For the same molecule, the EC50 in [11] was found to be 0.15 nM; in assay [3], 0.17 nM; in assay [12], 0.19 nM; in assay [13], 0.19 nM; in assay [14], 0.14 nM; in assay [15], 0.17 nM. Besides, the binding result in [7] is “no binding”.

B3: MoC601 HuG1KFab (Fab, V domains shown)
VH: QVQLQQSGAELVKPGASVKISCKASGYAFSDYWMNWVKQRPGKGLEWIGQIYPGDDDTNYNGKFKGKATLTADKSSSTAYMQLSSLTSEDSAVYFCAREGYYGYTYVEYFDVWGTGTTVTVSS
VL: QIVLTQSPAIMSVSPGEKVTLTCSASSSVSYMHWYQQKSGTSPKRWIYDTSKLASGVPARFSGSGSGTSYSLTISSMEAEDAATYYCQQWTSNPLTFGAGTKLELRR
notes: also called chimeric Fab; Fab molecule
Molecule B3 came in with an EC50 in assay [16] of 0.48 nM. This counts as sub-nanomolar.
